B1: MBP‐tagged DTH8 (Days‐to‐heading on chromosome 8) (natural protein, rice (Oryza sativa), UniProt Q0J7P4 1-297, looked up)
chain: MKSRKSYGHLLSPVGSPPLDNESGEAAAAAAAGGGGCGSSAGYVVYGGGGGGDSPAKEQDRFLPIANVSRIMKRSLPANAKISKESKETVQECVSEFISFVTGEASDKCQREKRKTINGDDLLWAMTTLGFEAYVGPLKSYLNRYREAEGEKADVLGGAGGAAAARHGEGGCCGGGGGGADGVVIDGHYPLAGGLSHSHHGHQQQDGGGDVGLMMGGGDAGVGYNAGAGSTTTAFYAPAATAASGNKAYCGGDGSRVMEFEGIGGEEESGGGGGGGERGFAGHLHGVQWFRLKRNTN

Assays:
[1] = target: GST‐tagged Ghd7 (Grain number, plant height and heading‐date7) (rice (Oryza sativa)) (UniProt E5RQA1); assay: pull-down
[2] = target: T1, GST‐tagged Ghd7 (Grain number, plant height and heading‐date7) (rice (Oryza sativa), UniProt E5RQA1 1-257); assay: pull-down
T1 sequence (looked up): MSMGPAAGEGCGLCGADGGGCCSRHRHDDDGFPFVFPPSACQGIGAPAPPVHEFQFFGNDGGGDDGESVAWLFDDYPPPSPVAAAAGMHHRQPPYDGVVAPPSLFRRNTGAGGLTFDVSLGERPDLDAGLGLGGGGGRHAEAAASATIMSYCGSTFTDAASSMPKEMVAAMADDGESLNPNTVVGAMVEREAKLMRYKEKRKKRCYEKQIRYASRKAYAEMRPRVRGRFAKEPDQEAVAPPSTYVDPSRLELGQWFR

stoichiometry N [1]	stoichiometry N [2]	Molecule
1		MBP‐tagged Hd1 (Heading date 1) (from UniProt Q9FDX8 1-395) (natural protein)
	1	B1

Source: publication PMC7821112 (The New Phytologist, 2020)
